Test results published in patent US20240033244A1, “COMPOSITIONS AND METHODS FOR INHIBITING YTHDF1” (SHANGHAI INSTITUTE OF MATERIA MEDICA, CHINESE ACADEMY OF …, priority 2020, published 2024).
Numbering of substitutions follows the chain as printed.

Assays:
B16-OVA melanoma = assay: B16-OVA tumor growth in wild-type mice; type: in vivo, mouse; details: 5×10^5 B16-OVA in C57BL/6 mice, 10 μM i.v. 9 days after implantation (FIG. 19)
His-YTHDF1 (361-559) = target: T1, His-YTHDF1 (361-559) (UniProt Q9BYJ9 SEQ:40-238); assay: AlphaScreen; 20 mM Hepes pH 7.4, 150 mM NaCl, BSA, TritonX-100; binding inhibited by SAA; details: tags: His; label: 5'-biotin
T1 sequence: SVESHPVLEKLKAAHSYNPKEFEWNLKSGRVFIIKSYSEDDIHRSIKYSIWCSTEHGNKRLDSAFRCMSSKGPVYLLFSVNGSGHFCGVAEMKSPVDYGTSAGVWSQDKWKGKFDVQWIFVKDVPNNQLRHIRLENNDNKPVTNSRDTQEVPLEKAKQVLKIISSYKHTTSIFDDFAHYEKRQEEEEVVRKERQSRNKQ
Procedure: Then 10 nM biotinylated m⁶A-containing mRNA (5′-biotin-[…] (m⁶A) CUGUG-3′) (SEQ ID NO: 15) was added to bind with YTHDF1 (361-559), and unbiotinylated m⁶A-containing mRNA was used as the positive control. Before Alpha signal detection, streptavidin donor beads and anti-His acceptor beads were added into the white assay plate in subdued light (OptiPlate™-384, PerkinElmer) and incubated at 4° C. for 1 hour to ensure sufficient binding between biotin tag and streptavidin donor beads, as well as that between His tag and anti-His acceptor beads. Then the Alpha signal was detected on Envision Readers (PerkinElmer).

YTHDF1 (361-559) H528A = target: T2, YTHDF1 (361-559) H528A (UniProt Q9BYJ9 SEQ:3-201, H528A); assay: FP; value only in figure; affinity not influenced vs wild type; details: tags: GST tag removed; label: 5'-FAM
T2 sequence: T1 sequence with H168A

YTHDF1 (361-559) F480A = target: T3, YTHDF1 (361-559) F480A (UniProt Q9BYJ9 SEQ:3-201, F480A); assay: as above; details: tags: GST tag removed; label: 5'-FAM
T3 sequence: T1 sequence with F120A

[1] = target: T4, YTHDF1 C-terminal truncation (UniProt Q9BYJ9 SEQ:3-174); assay: as above; details: tags: GST tag removed; label: 5'-FAM
T4 chain: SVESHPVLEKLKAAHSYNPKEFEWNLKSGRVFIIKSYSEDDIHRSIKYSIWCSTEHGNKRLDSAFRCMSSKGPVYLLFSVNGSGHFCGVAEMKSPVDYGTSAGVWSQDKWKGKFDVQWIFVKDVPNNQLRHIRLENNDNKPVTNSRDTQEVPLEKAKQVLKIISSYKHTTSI

YTHDF1 (361-559) N378A = target: T5, YTHDF1 (361-559) N378A (UniProt Q9BYJ9 SEQ:3-201, N378A); assay: as above; details: tags: GST tag removed; label: 5'-FAM
T5 sequence: T1 sequence with N18A

YTHDF1 (361-559) W384A = target: T6, YTHDF1 (361-559) W384A (UniProt Q9BYJ9 SEQ:3-201, W384A); assay: as above; details: tags: GST tag removed; label: 5'-FAM
T6 sequence: T1 sequence with W24A

YTHDF1 (361-559) F382A = target: T7, YTHDF1 (361-559) F382A (UniProt Q9BYJ9 SEQ:3-201, F382A); assay: as above; details: tags: GST tag removed; label: 5'-FAM
T7 sequence: T1 sequence with F22A

YTHDF1 (361-559) R506A = target: T8, YTHDF1 (361-559) R506A (UniProt Q9BYJ9 SEQ:3-201); assay: FP; binding seen through SAA inhibition assay; affinity not given; details: tags: GST tag removed; label: 5'-FAM
T8 chain: T1 sequence with R146A

YTHDF1 (361-559) K395A = target: T9, YTHDF1 (361-559) K395A (UniProt Q9BYJ9 SEQ:3-201); assay: as above; details: tags: GST tag removed; label: 5'-FAM
T9 chain: T1 sequence with K35A

YTHDF1 (361-559) C412A = target: T10, YTHDF1 (361-559) C412A (UniProt Q9BYJ9 SEQ:3-201); assay: as above; details: tags: GST tag removed; label: 5'-FAM
T10 chain: T1 sequence with C52A

YTHDF1 (361-559) Y397A = target: T11, YTHDF1 (361-559) Y397A (UniProt Q9BYJ9 SEQ:3-201); assay: as above; details: tags: GST tag removed; label: 5'-FAM
T11 chain: T1 sequence with Y37A

[2] = target: T12, YTHDF1 (361-559), YTH domain (UniProt Q9BYJ9 SEQ:3-201); assay: FP; value only in figure; 20 mM Hepes pH 7.4, 50 mM NaCl, 0.01% tween 20, 5% glycerol, 4 C; details: tags: GST tag removed; E. coli BL21(DE3); label: 5'-FAM
T12 sequence: T1 sequence

O=C(/C=C/c1ccc(O)c2oc(-c3ccc(O)c(O)c3)cc12)O[C@H](Cc1ccc(O)c(O)c1)C(=O)O [SAC, Salvianolic Acid C]
tumor growth was much slower: tumor growth versus DMSO (B16-OVA melanoma)

UUCUUCUGUGGACUGUG (ssRNA, m6A at position 12 (UUCUUCUGUGG(m6A)CUGUG)) [5'-biotin m6A-containing mRNA]
binds: binding result (His-YTHDF1 (361-559))

UUCUUCUGUGGACUGUG (ssRNA, m6A at position 12 (UUCUUCUGUGG(m6A)CUGUG)) [5'-FAM m6A-containing mRNA]
binds: binding result (YTHDF1 (361-559) H528A) | binding result (YTHDF1 (361-559) F480A) | binding result [1] | binding result (YTHDF1 (361-559) N378A) | binding result (YTHDF1 (361-559) W384A) | binding result (YTHDF1 (361-559) F382A) | binding result (YTHDF1 (361-559) R506A) | binding result (YTHDF1 (361-559) K395A) | binding result (YTHDF1 (361-559) C412A) | binding result (YTHDF1 (361-559) Y397A) | binding result [2]
